Target: T1, alpha-amylase (UniProt P0DUB6 P0DUB6:16-511)
T1 sequence: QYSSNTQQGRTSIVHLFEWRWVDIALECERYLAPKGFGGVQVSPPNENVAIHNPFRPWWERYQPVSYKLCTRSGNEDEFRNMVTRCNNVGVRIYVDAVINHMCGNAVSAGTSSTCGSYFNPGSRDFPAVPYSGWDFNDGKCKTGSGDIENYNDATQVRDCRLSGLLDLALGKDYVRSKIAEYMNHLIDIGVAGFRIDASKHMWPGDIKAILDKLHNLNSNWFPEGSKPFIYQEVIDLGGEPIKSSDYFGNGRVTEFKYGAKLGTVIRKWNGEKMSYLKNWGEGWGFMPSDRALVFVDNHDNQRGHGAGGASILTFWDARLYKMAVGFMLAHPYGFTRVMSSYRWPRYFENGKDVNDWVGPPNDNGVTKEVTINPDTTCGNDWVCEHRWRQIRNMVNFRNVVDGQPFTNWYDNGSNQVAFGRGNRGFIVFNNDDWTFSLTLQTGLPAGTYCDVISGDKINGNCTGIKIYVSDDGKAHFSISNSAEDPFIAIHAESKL
Assay: ELONA
Details: tags: Lee Biosolutions 120-17

B1: DNA aptamer to SARS-CoV-2 spike RBD, alkaline phosphatase conjugate (ssDNA)
DNA: CAGCACCGACCTTGTGCTTTGGGAGTGCTGGTCCAAGGGCGTTAATGGACA
modifications: 5' biotin via C6 spacer
Question: Does B1 bind?
Answer: no binding

From US20220334106, “CONJUGATE” (DENSO CORPORATION, published 2022)
